Experimental data from US7666582B2, “IdeS, an IgG-degrading enzyme of Streptococcus pyogenes” (Hansa Medical Research AB, priority 2001, dated 2010).

What was measured:
IgG2 = assay: IdeS activity against IgG2; assay type: biochemical, human
fibronectin = fibronectin (Homo sapiens, UniProt P02751); assay: IdeS cleavage of other human proteins: fibronectin; assay type: biochemical
[1] = test system: IgG bound to AP1 bacteria; assay: IdeS cleavage of IgG bound to S. pyogenes bacterial surface; assay type: cell-based, human; settings: AP1 bacteria after absorption of non-immune or immune plasma
cystatin C = target: T1, cystatin C (Rattus norvegicus, UniProt P14841); assay: IdeS incubation with rat cystatin C; assay type: biochemical
T1 sequence (P14841 21-140): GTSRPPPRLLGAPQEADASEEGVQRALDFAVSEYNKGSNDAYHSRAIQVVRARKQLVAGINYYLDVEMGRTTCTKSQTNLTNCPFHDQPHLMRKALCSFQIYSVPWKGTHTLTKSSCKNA

human IgA = assay: IdeS cleavage assay of Ig classes: IgA; assay type: biochemical; settings: purified IdeS, 2 h at 37° C.
Procedure: (§1) For standard IdeS activity assays, bacteria cultures were grown to OD620=0.4. Bacteria were pelleted by centrifugation and supernatants were sterile-filtered through a 0.22 μm membrane (Millipore) prior to use. For activity assays, […] of supernatant were mixed with 5 μl of IgG (10 mg/ml, Sigma) and the volume was adjusted with PBS to 100 μl. For screening of IdeS activity in different S. progenes strains, E64 was added to a final concentration of 40 μM. The mixtures were incubated at 37° C. for 30 min and samples were analyzed by 12% SDS-PAGE. For cleavage assays of different classes of Ig, purified IdeS (0.3 μg/ml) was incubated with 3 μg Ig for 2 h at 37° C., and analyzed by 12% SDS-PAGE analysis.

aprotinin = aprotinin (Bos taurus, UniProt P00974); assay: IdeS cleavage of other human proteins: aprotinin; assay type: biochemical
human IgG = assay: IdeS cleavage assay of Ig classes: IgG; assay type: biochemical
Procedure: as §1

[2] = test system: different subclasses of IgG; assay: IdeS activity against the subclasses of IgG; assay type: biochemical, human
murine IgG = assay: IdeS species restrictions: murine IgG; assay type: biochemical
H-kininogen = target: T2, H-kininogen (Homo sapiens, UniProt P01042); assay: IdeS cleavage of other human proteins: H-kininogen; assay type: biochemical
T2 sequence (P01042 19-644): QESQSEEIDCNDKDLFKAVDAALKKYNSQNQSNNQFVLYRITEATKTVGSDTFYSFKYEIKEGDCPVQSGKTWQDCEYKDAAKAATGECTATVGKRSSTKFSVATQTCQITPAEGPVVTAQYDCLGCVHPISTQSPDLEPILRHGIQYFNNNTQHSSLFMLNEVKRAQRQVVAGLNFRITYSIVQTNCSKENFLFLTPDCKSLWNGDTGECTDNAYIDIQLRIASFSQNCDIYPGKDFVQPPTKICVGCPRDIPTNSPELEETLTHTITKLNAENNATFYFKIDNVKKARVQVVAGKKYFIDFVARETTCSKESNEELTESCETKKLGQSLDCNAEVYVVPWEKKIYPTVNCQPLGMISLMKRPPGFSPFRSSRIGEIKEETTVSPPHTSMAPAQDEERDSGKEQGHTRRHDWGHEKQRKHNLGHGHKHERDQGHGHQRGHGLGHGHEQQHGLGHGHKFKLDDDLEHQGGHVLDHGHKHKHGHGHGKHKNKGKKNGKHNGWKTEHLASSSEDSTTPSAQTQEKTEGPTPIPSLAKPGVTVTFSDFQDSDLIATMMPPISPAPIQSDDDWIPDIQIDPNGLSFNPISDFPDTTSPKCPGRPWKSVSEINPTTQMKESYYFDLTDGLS

albumin = albumin (Homo sapiens, UniProt P02768); assay: IdeS cleavage of other human proteins: albumin; assay type: biochemical

Chain of fibronectin (P02751 32-2477): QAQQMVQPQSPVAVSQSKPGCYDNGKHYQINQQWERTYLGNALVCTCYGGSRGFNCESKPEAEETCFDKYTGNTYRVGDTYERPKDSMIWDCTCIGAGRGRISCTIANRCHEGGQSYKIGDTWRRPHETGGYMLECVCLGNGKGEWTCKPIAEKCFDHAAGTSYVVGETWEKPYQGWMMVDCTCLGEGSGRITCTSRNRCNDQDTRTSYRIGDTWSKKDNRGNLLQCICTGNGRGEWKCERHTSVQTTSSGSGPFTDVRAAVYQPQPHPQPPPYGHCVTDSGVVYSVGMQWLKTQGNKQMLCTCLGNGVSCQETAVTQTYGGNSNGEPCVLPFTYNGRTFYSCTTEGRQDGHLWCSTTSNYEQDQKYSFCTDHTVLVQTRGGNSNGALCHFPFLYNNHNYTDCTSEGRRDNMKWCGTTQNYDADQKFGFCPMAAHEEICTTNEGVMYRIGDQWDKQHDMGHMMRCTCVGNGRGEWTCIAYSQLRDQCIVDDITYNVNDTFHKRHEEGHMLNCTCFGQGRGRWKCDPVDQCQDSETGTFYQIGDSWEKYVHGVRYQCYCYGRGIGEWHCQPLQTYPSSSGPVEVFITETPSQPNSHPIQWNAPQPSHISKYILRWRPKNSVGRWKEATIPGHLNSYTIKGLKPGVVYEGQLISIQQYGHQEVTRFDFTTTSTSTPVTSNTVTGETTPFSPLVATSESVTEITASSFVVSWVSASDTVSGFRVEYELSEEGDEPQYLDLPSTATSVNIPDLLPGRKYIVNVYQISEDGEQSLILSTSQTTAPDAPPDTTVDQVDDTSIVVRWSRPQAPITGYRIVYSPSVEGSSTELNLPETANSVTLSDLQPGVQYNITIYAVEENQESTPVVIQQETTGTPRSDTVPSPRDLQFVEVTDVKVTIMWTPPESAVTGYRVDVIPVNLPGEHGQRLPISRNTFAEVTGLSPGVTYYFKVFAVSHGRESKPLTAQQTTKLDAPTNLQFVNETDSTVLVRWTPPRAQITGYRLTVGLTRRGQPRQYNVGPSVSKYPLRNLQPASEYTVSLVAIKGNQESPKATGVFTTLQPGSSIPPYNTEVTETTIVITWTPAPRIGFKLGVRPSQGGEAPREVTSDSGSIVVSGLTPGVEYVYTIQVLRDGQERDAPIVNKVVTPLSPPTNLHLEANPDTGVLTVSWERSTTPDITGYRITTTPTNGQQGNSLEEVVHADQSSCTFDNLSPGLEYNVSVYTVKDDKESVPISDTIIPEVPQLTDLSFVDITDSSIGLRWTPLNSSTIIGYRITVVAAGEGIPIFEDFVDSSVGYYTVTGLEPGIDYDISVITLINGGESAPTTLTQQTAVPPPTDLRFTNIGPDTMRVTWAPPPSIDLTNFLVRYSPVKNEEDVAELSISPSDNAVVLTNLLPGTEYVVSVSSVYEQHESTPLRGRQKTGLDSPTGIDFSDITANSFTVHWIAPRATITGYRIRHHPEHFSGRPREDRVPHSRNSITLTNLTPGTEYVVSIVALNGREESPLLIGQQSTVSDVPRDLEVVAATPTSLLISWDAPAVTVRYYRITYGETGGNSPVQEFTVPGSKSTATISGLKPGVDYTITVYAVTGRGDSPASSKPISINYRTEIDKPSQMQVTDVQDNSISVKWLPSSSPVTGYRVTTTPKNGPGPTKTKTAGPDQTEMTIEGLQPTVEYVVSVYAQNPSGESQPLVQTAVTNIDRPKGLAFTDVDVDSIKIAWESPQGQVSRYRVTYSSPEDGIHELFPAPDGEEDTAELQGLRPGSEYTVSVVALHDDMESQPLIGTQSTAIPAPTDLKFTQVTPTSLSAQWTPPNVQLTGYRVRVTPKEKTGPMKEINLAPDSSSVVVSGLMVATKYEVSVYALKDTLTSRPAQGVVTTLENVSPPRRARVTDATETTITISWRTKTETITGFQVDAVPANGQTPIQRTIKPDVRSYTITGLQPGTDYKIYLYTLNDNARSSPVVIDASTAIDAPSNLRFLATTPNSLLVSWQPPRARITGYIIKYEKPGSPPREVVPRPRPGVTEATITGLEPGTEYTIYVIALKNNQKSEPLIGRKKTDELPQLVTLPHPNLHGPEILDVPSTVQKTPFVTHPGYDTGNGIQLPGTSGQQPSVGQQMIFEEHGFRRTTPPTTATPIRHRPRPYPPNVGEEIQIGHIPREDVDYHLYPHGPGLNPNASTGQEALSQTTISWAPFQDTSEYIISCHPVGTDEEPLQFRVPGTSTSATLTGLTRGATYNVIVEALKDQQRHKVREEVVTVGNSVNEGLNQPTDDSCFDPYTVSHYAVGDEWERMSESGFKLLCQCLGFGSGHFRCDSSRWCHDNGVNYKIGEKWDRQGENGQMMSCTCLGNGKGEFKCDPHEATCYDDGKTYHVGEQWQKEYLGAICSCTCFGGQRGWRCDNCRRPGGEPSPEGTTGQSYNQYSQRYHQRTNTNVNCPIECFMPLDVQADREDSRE

B1: IdeS: new extracellular cysteine protease produced by S. pyogenes, highly specific for IgG; SEQ ID NO: 1 (protein)
chain: DSFSANQEIRYSEVTPYHVTSVWTKGVTPPANFTQGEDVFHAPYVANQGWYDITKTFNGKDDLLCGAATAGNMLHWWFDQNKDQIKRYLEEHPEKQKINFNGEQMFDVKEAIDTKNHQLDSKLFEYFKEKAFPYLSTKHLGVFPDHVIDMFINGYRLSLTNHGPTPVKEGSKDPRGGIFDAVFTRGDQSKLLTSRHDFKEKNLKEISDLIKKELTEGKALGLSHTYANVRINHVINLWGADFDSNGNLKAIYVTDSDSNASIGMKKYFVGVNSAGKVAISAKEIKEDNIGAQVLGLFTLSTGQDSWNQTN
modifications: S. Pyogenes
IgG2
  digestion of IgG2 compared to the other subclasses: less efficiently digested
fibronectin
  cleavage products, fibronectin: No cleavage products could be detected
[1]
  cleavage of IgG bound to the bacterial surface (31 kDa band): in both cases IgG was cleaved
Cystatin C
  cleavage products, cystatin C from rat: No cleavage products could be observed
Human IgA
  degradation of human IgA: only IgG was degraded
aprotinin
  cleavage products, aprotinin: No cleavage products could be detected
Human IgG; purified IdeS, 2 h at 37° C.
  degradation of human IgG: only IgG was degraded
Human IgG; species restrictions
  cleavage of human IgG: cleave
[2]
  digestion of the different subclasses of IgG: all were susceptible for IdeS digestion
Murine IgG
  cleavage of murine IgG: not murine IgG
H-kininogen
  cleavage products, H-kininogen: No cleavage products could be detected
albumin
  cleavage products, albumin: No cleavage products could be detected
